The data set concerns the target T1, STAT-1alpha wild type (transfected in U3A cells) (Homo sapiens) (UniProt P42224).
T1 sequence: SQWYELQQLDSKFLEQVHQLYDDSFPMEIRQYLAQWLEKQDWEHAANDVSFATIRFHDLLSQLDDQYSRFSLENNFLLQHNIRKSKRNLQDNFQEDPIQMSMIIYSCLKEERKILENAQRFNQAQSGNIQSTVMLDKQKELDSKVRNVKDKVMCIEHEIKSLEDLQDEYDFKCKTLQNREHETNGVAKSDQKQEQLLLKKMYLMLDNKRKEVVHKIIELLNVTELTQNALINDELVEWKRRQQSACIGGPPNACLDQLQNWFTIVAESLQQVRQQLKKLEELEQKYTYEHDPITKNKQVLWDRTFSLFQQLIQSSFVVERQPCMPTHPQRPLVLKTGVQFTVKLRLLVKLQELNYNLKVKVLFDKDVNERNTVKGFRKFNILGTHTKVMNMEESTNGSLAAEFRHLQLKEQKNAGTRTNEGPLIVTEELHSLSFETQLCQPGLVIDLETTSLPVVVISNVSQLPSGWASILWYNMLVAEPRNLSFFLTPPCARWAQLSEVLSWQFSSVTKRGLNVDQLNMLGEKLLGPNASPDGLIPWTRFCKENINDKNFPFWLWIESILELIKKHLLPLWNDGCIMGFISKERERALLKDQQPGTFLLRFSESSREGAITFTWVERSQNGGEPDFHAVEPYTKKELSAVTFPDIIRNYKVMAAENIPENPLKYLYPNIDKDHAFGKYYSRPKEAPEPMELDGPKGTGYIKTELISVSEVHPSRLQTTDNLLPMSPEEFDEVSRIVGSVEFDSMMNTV
Description: cell_activity. The conditions noted are these: luciferase reporter in U3A cells, IFN-gamma 5 ng/ml 10 h.

On to “GATCAGTTCCCGTCAATCNATGATCCAGTTCCCGTCAATGATCCCCGGGATC (double strand) [tandem weak c-fos STAT-1 sites reporter enhancer]”, for which the activity (fold induction) came to 2.

For the origin of these results see patent publication US6312887.
